{"source": "patent US20090053138", "about": "“Stabilized Aptamers to Platelet Derived Growth Factor and their Use as Oncology Therapeutics” (published 2009)", "target": "PDGF-BB (Homo sapiens, UniProt P01127 P01127:82-190)", "sequence (P01127 82-190, one chain of several)": "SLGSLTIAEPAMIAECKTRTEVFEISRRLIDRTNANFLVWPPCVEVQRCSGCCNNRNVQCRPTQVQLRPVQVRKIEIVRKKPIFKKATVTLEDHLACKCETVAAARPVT", "assay": "cell_activity; 3T3 proliferation; Table 2 prints 3.45", "conditions": "tags: PeproTech; chain copies: 2 (inferred, homodimer)", "data": [{"binder": "CACAGGCTACGGCACGTAGAGCATCACCATGATCCTGTG (ssDNA, 3'-inverted dT)", "note": "[ARC124]", "values": [{"measurement": "IC50", "result": 20.7, "unit": "nM"}]}]}
